Columns and labels:
Experiment in all cases: purified protein
Assay type in all cases: biochemical, Thraustochytrium roseum
Details in all cases: 100 μM hexadecanol, pH 7.4, 37 °C, acyl-CoA varied 15-90 μM
[1] = system: CC/C=C\C/C=C\C/C=C\C/C=C\C/C=C\CCCC(=O)SCCNC(=O)CCNC(=O)[C@H](O)C(C)(C)COP(=O)(O)OP(=O)(O)OC[C@H]1O[C@@H](n2cnc3c(N)ncnc32)[C@H](O)[C@@H]1OP(=O)(O)O
[2] = system: CCCCC/C=C\C/C=C\C/C=C\C/C=C\CCCC(=O)SCCNC(=O)CCNC(=O)[C@H](O)C(C)(C)COP(=O)(O)OP(=O)(O)OC[C@H]1O[C@@H](n2cnc3c(N)ncnc32)[C@H](O)[C@@H]1OP(=O)(O)O
[3] = system: CCCCC/C=C\C/C=C\C/C=C\CCCCC(=O)SCCNC(=O)CCNC(=O)[C@H](O)C(C)(C)COP(=O)(O)OP(=O)(O)OC[C@H]1O[C@@H](n2cnc3c(N)ncnc32)[C@H](O)[C@@H]1OP(=O)(O)O
[4] = system: CCCCCCCC(=O)SCCNC(=O)CCNC(=O)[C@H](O)C(C)(C)COP(=O)(O)OP(=O)(O)OC[C@H]1O[C@@H](n2cnc3c(N)ncnc32)[C@H](O)[C@@H]1OP(=O)(O)O
[5] = system: CCCCCCCCCC(=O)SCCNC(=O)CCNC(=O)[C@H](O)C(C)(C)COP(=O)(O)OP(=O)(O)OC[C@H]1O[C@@H](n2cnc3c(N)ncnc32)[C@H](O)[C@@H]1OP(=O)(O)O
[6] = system: CCCCCCCCCCCC(=O)SCCNC(=O)CCNC(=O)[C@H](O)C(C)(C)COP(=O)(O)OP(=O)(O)OC[C@H]1O[C@@H](n2cnc3c(N)ncnc32)[C@H](O)[C@@H]1OP(=O)(O)O
[7] = system: CCCCCCCCCCCCCC(=O)SCCNC(=O)CCNC(=O)[C@H](O)C(C)(C)COP(=O)(O)OP(=O)(O)OC[C@H]1O[C@@H](n2cnc3c(N)ncnc32)[C@H](O)[C@@H]1OP(=O)(O)O
[8] = system: CCCCCCCCCCCCCCCC(=O)SCCNC(=O)CCNC(=O)[C@H](O)C(C)(C)COP(=O)(O)OP(=O)(O)OC[C@H]1O[C@@H](n2cnc3c(N)ncnc32)[C@H](O)[C@@H]1OP(=O)(O)O
[9] = system: CCCCCCCCCCCCCCCCCC(=O)SCCNC(=O)CCNC(=O)[C@H](O)C(C)(C)COP(=O)(O)OP(=O)(O)OC[C@H]1O[C@@H](n2cnc3c(N)ncnc32)[C@H](O)[C@@H]1OP(=O)(O)O
purified protein [10] = substrate: CC/C=C\C/C=C\C/C=C\C/C=C\C/C=C\CCCC(=O)SCCNC(=O)CCNC(=O)[C@H](O)C(C)(C)COP(=O)(O)OP(=O)(O)OC[C@H]1O[C@@H](n2cnc3c(N)ncnc32)[C@H](O)[C@@H]1OP(=O)(O)O; remark: listed apart in the source
purified protein [11] = substrate: CCCCC/C=C\C/C=C\C/C=C\C/C=C\CCCC(=O)SCCNC(=O)CCNC(=O)[C@H](O)C(C)(C)COP(=O)(O)OP(=O)(O)OC[C@H]1O[C@@H](n2cnc3c(N)ncnc32)[C@H](O)[C@@H]1OP(=O)(O)O; remark: listed apart in the source
purified protein [12] = substrate: CCCCC/C=C\C/C=C\C/C=C\CCCCC(=O)SCCNC(=O)CCNC(=O)[C@H](O)C(C)(C)COP(=O)(O)OP(=O)(O)OC[C@H]1O[C@@H](n2cnc3c(N)ncnc32)[C@H](O)[C@@H]1OP(=O)(O)O; remark: listed apart in the source
purified protein [13] = substrate: CCCCCCCC(=O)SCCNC(=O)CCNC(=O)[C@H](O)C(C)(C)COP(=O)(O)OP(=O)(O)OC[C@H]1O[C@@H](n2cnc3c(N)ncnc32)[C@H](O)[C@@H]1OP(=O)(O)O; remark: listed apart in the source
purified protein [14] = substrate: CCCCCCCCCC(=O)SCCNC(=O)CCNC(=O)[C@H](O)C(C)(C)COP(=O)(O)OP(=O)(O)OC[C@H]1O[C@@H](n2cnc3c(N)ncnc32)[C@H](O)[C@@H]1OP(=O)(O)O; remark: listed apart in the source
purified protein [15] = substrate: CCCCCCCCCCCC(=O)SCCNC(=O)CCNC(=O)[C@H](O)C(C)(C)COP(=O)(O)OP(=O)(O)OC[C@H]1O[C@@H](n2cnc3c(N)ncnc32)[C@H](O)[C@@H]1OP(=O)(O)O; remark: listed apart in the source
purified protein [16] = substrate: CCCCCCCCCCCCCC(=O)SCCNC(=O)CCNC(=O)[C@H](O)C(C)(C)COP(=O)(O)OP(=O)(O)OC[C@H]1O[C@@H](n2cnc3c(N)ncnc32)[C@H](O)[C@@H]1OP(=O)(O)O; remark: listed apart in the source
purified protein [17] = substrate: CCCCCCCCCCCCCCCC(=O)SCCNC(=O)CCNC(=O)[C@H](O)C(C)(C)COP(=O)(O)OP(=O)(O)OC[C@H]1O[C@@H](n2cnc3c(N)ncnc32)[C@H](O)[C@@H]1OP(=O)(O)O; remark: listed apart in the source
purified protein [18] = substrate: CCCCCCCCCCCCCCCCCC(=O)SCCNC(=O)CCNC(=O)[C@H](O)C(C)(C)COP(=O)(O)OP(=O)(O)OC[C@H]1O[C@@H](n2cnc3c(N)ncnc32)[C@H](O)[C@@H]1OP(=O)(O)O; remark: listed apart in the source

Molecule: TrWSD5 (ΔTmTrWSD5) (Thraustochytrium roseum; DEL472-494)
- Km [1]: 106.2 µM
- Vmax [1]: 0.312 µmol/min/mg
- kcat [1]: 0.498 s⁻¹
- kcat/Km [1]: 4690 M⁻¹ s⁻¹
- Km [2]: 226.35 µM
- Vmax [2]: 0.103 µmol/min/mg
- kcat [2]: 0.165 s⁻¹
- kcat/Km [2]: 729 M⁻¹ s⁻¹
- Km [3]: 284.68 µM
- Vmax [3]: 0.152 µmol/min/mg
- kcat [3]: 0.242 s⁻¹
- kcat/Km [3]: 850 M⁻¹ s⁻¹
- Km [4]: 12.25 µM
- Vmax [4]: 0.0639 µmol/min/mg
- kcat [4]: 0.102 s⁻¹
- kcat/Km [4]: 8330 M⁻¹ s⁻¹
- Km [5]: 0.96 µM
- Vmax [5]: 0.0589 µmol/min/mg
- kcat [5]: 0.0941 s⁻¹
- kcat/Km [5]: 98300 M⁻¹ s⁻¹
- Km [6]: 25.93 µM
- Vmax [6]: 0.152 µmol/min/mg
- kcat [6]: 0.243 s⁻¹
- kcat/Km [6]: 9370 M⁻¹ s⁻¹
- Km [7]: 18.5 µM
- Vmax [7]: 0.207 µmol/min/mg
- kcat [7]: 0.331 s⁻¹
- kcat/Km [7]: 17900 M⁻¹ s⁻¹
- Km [8]: 24.77 µM
- Vmax [8]: 0.213 µmol/min/mg
- kcat [8]: 0.341 s⁻¹
- kcat/Km [8]: 13700 M⁻¹ s⁻¹
- Km [9]: 75.87 µM
- Vmax [9]: 0.379 µmol/min/mg
- kcat [9]: 0.604 s⁻¹
- kcat/Km [9]: 7960 M⁻¹ s⁻¹

B1: TrWSD4 (Thraustochytrium roseum) (protein)
chain: MAENNNHLDEAVVDEAQREQDVEVEEEVEEEEEEEEEEEEEAVVEDVKATLADGPAEKSPKVAPKQTKRKGRRVKHRASVTTRLIGNLQREAQSKSSWVVGLLFFKSDPGFEAVRETVGKRLLQIPRFRSKLTARRFPAKMEFVELDDDEIDMDYHFRQAFQDRTATLDEVDEFVGSMFDGFNHPMDKPLWQITYIPKLEDGRAVLITNISHIVGDGIAQVEVLMRLLDPVKESKGEKVQKPRTGANKKRKPPALGPFTKAKVFMGGVWEGFFSVISSPDKKNTLRLKDVNKPSPTKRCTFSETIPLDKVKELKNMYEGATLNDVLVTLLTLTLRAYFREVGDKGALRNKVRAQFPINIRSKSEGPFRNDNPRNKFTYGFMPFHVSGNRDASATFWRTKRTLDKIKSSPSPVVQHQVGKVISNIMPLKALNAQLLNLAAKATAQVSNVPGPQDAVTVAGTEVDDMRFLLYSPLSFYVGLLTYNGNLSASFCIDSALADPRLISKHWLPEFEKFYAHAKEAAGESGLIRKPRSCLDCL
- Km (purified protein [10]): 131.16 µM
- Vmax (purified protein [10]): 0.00905 µmol/min/mg
- kcat (purified protein [10]): 0.0114 s⁻¹
- kcat/Km (purified protein [10]): 86.6 M⁻¹ s⁻¹
- Km (purified protein [11]): 297.17 µM
- Vmax (purified protein [11]): 0.0118 µmol/min/mg
- kcat (purified protein [11]): 0.0148 s⁻¹
- kcat/Km (purified protein [11]): 49.9 M⁻¹ s⁻¹
- Km (purified protein [12]): 280.86 µM
- Vmax (purified protein [12]): 0.0188 µmol/min/mg
- kcat (purified protein [12]): 0.0236 s⁻¹
- kcat/Km (purified protein [12]): 84 M⁻¹ s⁻¹
- Km (purified protein [13]): 29.93 µM
- Vmax (purified protein [13]): 0.0148 µmol/min/mg
- kcat (purified protein [13]): 0.0185 s⁻¹
- kcat/Km (purified protein [13]): 619 M⁻¹ s⁻¹
- Km (purified protein [14]): 17.6 µM
- Vmax (purified protein [14]): 0.0122 µmol/min/mg
- kcat (purified protein [14]): 0.0154 s⁻¹
- kcat/Km (purified protein [14]): 873 M⁻¹ s⁻¹
- Km (purified protein [15]): 0.14 µM
- Vmax (purified protein [15]): 0.0161 µmol/min/mg
- kcat (purified protein [15]): 0.0202 s⁻¹
- kcat/Km (purified protein [15]): 146000 M⁻¹ s⁻¹
- Km (purified protein [16]): 3.94 µM
- Vmax (purified protein [16]): 0.0202 µmol/min/mg
- kcat (purified protein [16]): 0.0254 s⁻¹
- kcat/Km (purified protein [16]): 6440 M⁻¹ s⁻¹
- Km (purified protein [17]): 3.08 µM
- Vmax (purified protein [17]): 0.0255 µmol/min/mg
- kcat (purified protein [17]): 0.032 s⁻¹
- kcat/Km (purified protein [17]): 10400 M⁻¹ s⁻¹
- Km (purified protein [18]): 19.15 µM
- Vmax (purified protein [18]): 0.0302 µmol/min/mg
- kcat (purified protein [18]): 0.0379 s⁻¹
- kcat/Km (purified protein [18]): 1980 M⁻¹ s⁻¹

Source: PMC5513132, “Two bifunctional enzymes from the marine protist Thraustochytrium roseum: biochemical characterization of wax ester synthase/acyl-CoA:diacylglycerol acyltransferase activity catalyzing wax ester and triacylglycerol synthesis” (Biotechnology for Biofuels, 2017)
